We go through 3 molecules from patent US8404644B2, “Agents with angiogenic and wound healing activity” (Meat & Livestock Australia Limited, priority 2007, dated 2013).

Series [1] concerns full thickness 12 mm wound. As to the kind of experiment: Wound healing assay (Example 3.6). In kind it is in vivo, male Lewis rats. The settings on record: for Wound areas: mg/wound: Wound heal 1 0.01, Wound heal 2 0.1, Wound heal 3 1.0, Aloe vera 20; for wounds larger than wounds on rats receiving buffered saline only: 1.0 mg/wound. On the procedure: Thirty male Lewis rats were divided into 5 groups of 6 rats as outlined below in Table 7. Rats were age and weight matched. Rats were permitted rodent diet and water ad libitum throughout the study.
The animals were weighed two days before the start of the trial and weights grouped from lightest to heaviest. Animals were then randomly assigned to groups based on body weights, using 5×5 Latin squares so that group means were as similar as possible.
Approximately 30 minutes before wounding, each animal was given a subcutaneous injection of Temgesic at the base of the neck (0.075 mg/kg body weight). Each animal was anaesthetised using 3% halothane in oxygen. Once the pedal reflexes had been abolished, the animals were shaved from the base of the skull to the hind limb area using electric clippers. The skin on each rat was disinfected using 0.5% chlorhexidine in 70% ethanol. For each animal, the distance from the base of the skull to the top of the hip joint was measured and the wound position marked with a black felt tip pen, 6 cm below the base of the skull along the spinal axis.
Using asceptic techniques a full thickness incision was made at this position using a sterile 12 mm biopsy punch. Any bleeding was removed using cotton swabs. Care was taken that the punch was dry and that no debris (eg., skin, hair) entered the wounds. […] After photography of each wound using a Canon Digital EOS 20D camera with a F2.8 Macro lens, an aliquot of the sample was applied to the wounds on the rats in Groups A, B, D and E using a Gilson Microman CP 100 positive displacement pipette. The biopsy punch was wiped inside with a swab soaked in sterile saline to remove any tissue fluids and/or debris. The punch was then immersed in 70% ethanol before use on the next animal.
For applications and photographs after day 1 the animals were restrained without being anaesthetised.
(§1) Body weights were measured on days 1, 3, 5, 7, 9, 11, 13, 15, 17, 19, 21 and 23 and deviations from original body weights (on day 1) calculated for each animal. On the same days, photographs were taken using a Canon Digital Eos 20D with a F2.8 Macro lens. Photographs were downloaded and wound areas measured using NIH Image J 1.633u software (National Institutes of Health (NIH), Rockville Pike, Bethesda, Md., United States). A laser speckle image was also taken at the same time as each space photograph was taken. Animals were weighed every second day when the photographic record of wound closure rate was also made.
The redness and swelling of each wound were individually scored from visual observation. These were scored on a scale of 0-3 as follows:
Descriptive statistics were evaluated. […] Major analyses were performed on all data points collected. Preliminary analyses were undertaken on control wounds only using t-tests. Univariate ANOVAs were used to assess differences between treatment and controls and samples nested within treatments. A separate ANOVA assessed whether there was a dose response using the treatment samples only. Assumptions for normality were tested using q-q plots on studentized residuals and heterogeneity of variances were tested using Levene's tests. SPSS 11 for Mac OSX was used for assumption testing and statistical analysis.

Series [2] in a line: Body weight during wound healing assay (Example 3.6). In kind it is in vivo, male Lewis rats. The conditions noted are these: PBS control returned by day 11. As for the experimental part: as §1
Series [3] concerns rat aortic ring. As to the kind of experiment: Rat aortic ring angiogenesis assay (Example 4.3). In kind it is cell-based, Lewis rat. The conditions noted are these: second study, 200 μg/mL. On the procedure:
Four separate studies were carried out to determine the angiogenic effect of crystallin preparations. Each sample was assayed in triplicate. A positive control (VEGF) and a vehicle control containing PBS was also run in triplicate. […] Preliminary statistical significance was assessed with an independent Student t-test at α<0.05. Graphical representation of averages +/− standard errors were determined.
The first study investigated the angiogenic potential of bovine fractions prepared by gel filtration analysis as described in Example 3.2. As described in that Example, the alpha fraction contained αA and αB crystallin, the β H fraction contained all β crystallins, the β L1 fractions contained a sub-fraction of beta crystallins and a high content of βB2 crystallin and beta B3 crystallin and the beta L2 fraction contained only βB2 crystallin and βA3 crystallin.
(§2) The second study investigated the angiogenic potential of purified crystallin proteins. Briefly, βB3 crystallin was prepared by heating (97-99° C. for 3 minutes, supernatant collected by centrifugation) and was essentially homogenous. Alpha A crystallin and αB crystallin samples were prepared by ion exchange chromatography as described above and were also essentially homogenous. The Wound Heal 1-3 preparations were also tested in this study.
The third study investigated the angiogenic potential of ovine crystallin proteins compared to their bovine equivalents. Both bovine and ovine crystallin proteins were purified essentially to homogeneity by RP. HPLC using a C4 column, as described below in Example 5. Homogeneity was confirmed by SDS-PAGE. The effect of elastase I treatment of βB2 crystallin was also investigated by comparing the angiogenic potential of intact βB2 crystallin (i.e. undigested) with elastase I digested βB2 crystallin. Elastase I treatment releases the N-terminal and C-terminal extensions of the crystallin protein leaving a globular protein that is monomeric.
In the final study, ovine βB2 crystallin was tested alone or in combination with indoleamine 2,3-dioxygenase (IDO) and ovine alpha B crystallin was tested alone or in combination with tryptophan dioxygenase (TDO)
Briefly, in each study, a single Lewis rat was euthanised and its aorta transferred to a 15 mL Falcon tube containing 10 mL of MCBD-131 medium and stored on ice. After transferring the aorta to a 92×17 mm petri dish containing 10 mL of ice cold MCDB-131, the outer fatty tissue was removed under an Olympus SZ-60 Dissecting microscope. This was undertaken with fibre optic lamp illumination. The aorta was then cut into sequential rings approximately 2 mm in size. Connective tissue was removed with micro scissors and forceps from the outside of the individual rings. Clean rings were stored in a separate petri dish in sterile MCDB-131 medium. Rings were pre-incubated overnight at 37° C. in an atmosphere of 97% air/3% CO2.
To prepare gel sandwiches, 75 mg of fibrinogen was added to 25 mL MCDB-131 medium and shaken gently on a rocker roller for 5 minutes. 3 ml of MCDB-131/fibrinogen solution was added to a 15 mL Falcon tube, followed by 10 μL of thrombin and quickly mixed. A 0.4 mL volume of this fibrinogen-thrombin solution was added to each well on a 24 well plate, 6 wells at a time. Aortic rings were then placed on the setting gel, pushed gently into the gel and left for 45 minutes. These steps were then repeated so each ring was covered with 0.4 mL of gel. Gels were left to set at room temperature. […] The plate was then placed in incubator (37° C., 97% air/3% CO2).
Culture plate were examined daily for signs of infection (fungal growth or yellowing of media) in the wells using an inverted microscope. The growth of microvessels from their perimeters was also observed. Digital photographs of each well were taken seven days after plating using a Pixera PVC-100C digital camera mounted on an OLYMPUS CK-12 microscope and stored on a Macintosh Computer. […]

For series [4], the target named is T1, elastase I (Sus scrofa, UniProt P00772).
T1 construct: purchased Worthington Biochemical Corporation 2280
As to the kind of experiment: Chaperone activity: protection of elastase I from heat denaturation. In kind it is biochemical. The conditions noted are these: boiling water bath for 30 seconds. On the procedure: Bovine crystallin fractions were tested for ability to protect the proteases elastase I, trypsin and chymotrypsin from heat denaturation. Briefly, the proteases were heated in a boiling water bath for 30 seconds in the presence or absence of the crystallin fractions.

Series [5] has as its target T1, elastase I. The series is described as follows: Elastase I inhibitory activity of crystallin fractions. In kind it is biochemical. As for the experimental part: The bovine crystallin fractions were tested for ability to inhibit elastase I activity.
Series [6] in a line: Stability to heat treatment. In kind it is physicochemical. As for the experimental part:
as §2

T1 sequence (P00772 27-266): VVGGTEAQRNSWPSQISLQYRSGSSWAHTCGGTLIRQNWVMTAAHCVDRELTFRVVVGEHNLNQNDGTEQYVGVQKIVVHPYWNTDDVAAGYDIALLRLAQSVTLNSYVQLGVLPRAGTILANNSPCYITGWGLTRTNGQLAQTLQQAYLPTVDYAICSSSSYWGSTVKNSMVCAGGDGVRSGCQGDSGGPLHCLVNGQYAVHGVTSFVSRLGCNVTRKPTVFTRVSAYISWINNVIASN

B1: Wound Heal 3: bovine αB crystallin, DEAE Sepharose fast flow fractions 37-47; Group D of Example 3 (protein)
chain: MDIAIHHPWIRRPFFPFHSPSRLFDQFFGEHLLESDLFPASTSLSPFYLRPPSFLRAPSWIDTGLSEMRLEKDRFSVNLDVKHFSPEELKVKVLGDVIEVHGKHEERQDEHGFISREFHRKYRIPADVDPLAITSSLSSDGVLTVNGPRKQASGPERTIPITREEKPAVTAAPKK
As to B1, the Wound areas in series [1] (Day 1 (=100)) stood at 100; in series [1] (Day 3), 93; in series [1] (Day 5) it was 82; in series [1] (Day 7), 76; in series [1] (Day 9) it was 58; in series [1] (Day 11) it was 34. For the same molecule, the Wound areas came out at 23 in series [1] (Day 13); 15 in series [1] (Day 15); 9 in series [1] (Day 17); 5 in series [1] (Day 19); 2.5 in series [1] (Day 21); 1.4 in series [1] (Day 23). Also, the “wounds larger than wounds on rats receiving buffered saline only” value amounted to 8.8% in series [1] (day 3), 7.7% in series [1] (day 7) and 28.7% in series [1] (day 11). Moreover, the “healing rate compared to Control group (PBS), in words” value in series [1] (rat, in vivo) was “inhibited the rate of healing”. For the same molecule, in series [2], the “day by which mean body weight had returned to the starting (pre-wounding) weight” value is ≤ 12 days. Also, the “% of Control” value in series [3] (microvessel growth) was 93.09%. In series [4], the “chaperone activity: protection of elastase I from heat denaturation (in words)” value is “Chaperone activity was observed”.

B2: Gamma S crystallin: gamma S gel filtration fraction of bovine crystallin extract (protein)
chain: SKAGTKITFFEDKNFQGRHYDSDCDCADFHMYLSRCNSIRVEGGTWAVYERPNFAGYMYILPRGEYPEYQHWMGLNDRLSSCRAVHLSSGGQYKLQIFEKGDFNGQMHETTEDCPSIMEQFHMREVHSCKVLEGAWIFYELPNYRGRQYLLDKKEYRKPVDWGAASPAVQSFRRIVE
Turning to B2, in series [5], the “elastase I inhibitory activity (in words)” value is reported as “considerable elastase inhibitory activity”.

B3: βB2 crystallin: bovine βB2 crystallin protein (SEQ ID No. 1); in b236 the value is that of Wound Heal 2 (protein)
chain: ASDHQTQAGKPQPLNPKIIIFEQENFQGHSHELNGPCPNLKETGVEKAGSVLVQAGPWVGYEQANCKGEQFVFEKGEYPRWDSWTSSRRTDSLSSLRPIKVDSQEHKITLYENPNFTGKKMEVIDDDVPSFHAHGYQEKVSSVRVQSGTWVGYQYPGYRGLQYLLEKGDYKDSGDFGAPQPQVQSVRRIRDMQWHQRGAFHPSS
modifications: bovine
On to B3, for which, in series [6], the “stability to heat treatment (in words)” value is “unstable to heat treatment”. The “increase in microvessel growth (stimulatory)” value in series [3] is on record as 21.83%.
